Experimental data as given in article PMC11154664, “Characterization of Complex Proteoform Mixtures by Online Nanoflow Ion-Exchange Chromatography-Native Mass Spectrometry” (Analytical Chemistry, 2024).

Molecular target: the molecule itself
Test: native MS; online nanoflow strong cation exchange chromatography coupled to nESI native MS (nanoSCX-nMS); salt-mediated pH gradient from 50 mM ammonium acetate pH 5.0 to 250 mM ammonium acetate pH 8.5

B1: alcohol dehydrogenase (enzyme, UniProt P00330 1-348, looked up)
chain: MSIPETQKGVIFYESHGKLEYKDIPVPKPKANELLINVKYSGVCHTDLHAWHGDWPLPVKLPLVGGHEGAGVVVGMGENVKGWKIGDYAGIKWLNGSCMACEYCELGNESNCPHADLSGYTHDGSFQQYATADAVQAAHIPQGTDLAQVAPILCAGITVYKALKSANLMAGHWVAISGAAGGLGSLAVQYAKAMGYRVLGIDGGEGKEELFRSIGGEVFIDFTKEKDIVGAVLKATDGGAHGVINVSVSEAAIEASTRYVRANGTTVLVGMPAGAKCCSDVFNQVVKSISIVGSYVGNRADTREALDFFARGLVKSPIKVVGLSTLPEIYEKMEKGQIVGRYVVDTSK
notes: alcohol dehydrogenase (ADH), model oligomeric protein called a tetramer; also called ADH
With B1 the “stoichiometry N” value was 4.
